Laboratory results from paper PMC11883276.
Values belong to the substance of their own block, whether it stands above or below them.

Columns and labels:
[1] = molecular target: full-length human E-cadherin fused to GFP at the C-terminus, on A431-D cells (A431-D^E-cad) (human) (UniProt P12830)
[2] = molecular target: endogenous human E-cadherin on MCF-7 cells (human) (UniProt P12830)
[3] = molecular target: full-length wild-type human N-cadherin on A431-D cells (A431-D^N-cad; A431-D^N-cad+FGFR) (human) (UniProt P19022)
[4] = molecular target: full-length wild-type human N-cadherin on A431-D cells (A431-D^N-cad; A431-D^N-cad+FGFR) (human) (UniProt P19022); remark: listed apart in the source
[5] = molecular target: Fc-tagged extracellular domain of N-cadherin (N-cad-Fc) (UniProt P19022); test: density of cells attached to cadherin-coated substrates; A431-D^E-cad or A431-D^N-cad+FGFR cells counted 90 min after seeding in 0.5% serum with the fibronectin-blocking antibody 16G3 on E-cad-Fc or N-cad-Fc substrates; further samples treated with Gefitinib, BGJ398, DECMA-1 or anti-N-cad antibody
[6] = molecular target: Fc-tagged extracellular domain of E-cadherin (E-cad-Fc) (UniProt P12830); test: as above
[7] = molecular target: Fc-tagged extracellular domain of N-cadherin (N-cad-Fc) (UniProt P19022)
[8] = molecular target: Fc-tagged extracellular domain of E-cadherin (E-cad-Fc) (UniProt P12830)
[9] = molecular target: Fc-tagged extracellular domain of N-cadherin (N-cad-Fc) (UniProt P19022); remark: listed apart in the source
[10] = molecular target: Fc-tagged extracellular domain of E-cadherin (E-cad-Fc) (UniProt P12830); remark: listed apart in the source
[11] = molecular target: Fc-tagged extracellular domain of N-cadherin (N-cad-Fc) (UniProt P19022); remark: listed apart in the source
[12] = molecular target: Fc-tagged extracellular domain of E-cadherin (E-cad-Fc) (UniProt P12830); remark: listed apart in the source
[13] = molecular target: Fc-tagged extracellular domain of N-cadherin (N-cad-Fc) (UniProt P19022); test: capillary shear flow cell adhesion assay; as a1, but with A431-D^N-cad+FGFR cells (N-cad co-expressed with FGFR1) on N-cad-Fc-coated capillaries
[14] = molecular target: Fc-tagged extracellular domain of N-cadherin (N-cad-Fc) (UniProt P19022); test: capillary shear flow cell adhesion assay; cadherin-Fc (50 µg/ml) physisorbed on the inner walls of glass capillaries, blocked with BSA; A431-D^E-cad or A431-D^N-cad cells bound 20 min under static conditions, room temperature, low-serum medium with 2 mM Ca2+, then flow increased every 30 s; WSS50 from fits to Eqn 1

relative change of cell stiffness during bead twisting (MTC), E-cad beads on A431-D^E-cad cells [1]: 16%
relative change of cell stiffness during bead twisting (MTC), E-cad beads on MCF-7 cells [2]: 17%
relative change of cell stiffness during bead twisting (MTC), E-cad beads on A431-D^N-cad cells (no FGFR) [3]: -1%
Substance: Fc-tagged extracellular domain of E-cadherin (E-cad-Fc) (from UniProt P12830 155-709) (Fc fusion)

relative change of cell stiffness during bead twisting (MTC), N-cad beads on A431-D^E-cad cells [1]: -3.6%
relative change of cell stiffness during bead twisting (MTC), N-cad beads on A431-D^N-cad+FGFR cells [4]: 17%
relative change of cell stiffness during bead twisting (MTC), N-cad beads on A431-D^N-cad cells (no FGFR) [3]: 4%
Substance: Fc-tagged extracellular domain of N-cadherin (N-cad-Fc) (from UniProt P19022 160-724) (Fc fusion)

density of cells retained on the substrate [5]: 19 cells/mm^2
density of cells retained on the substrate [6]: 25 cells/mm^2
RMS traction stress of A431-D^E-cad cells on N-cad-Fc-coated 40 kPa gels, 0.5% serum [7]: 82 Pa
RMS traction stress of A431-D^E-cad cells on E-cad-Fc-coated 40 kPa gels, 0.5% serum [8]: 160 Pa
Substance: full-length human E-cadherin fused to GFP at the C-terminus, on A431-D cells (A431-D^E-cad) (from UniProt P12830 23-882) (receptor)

RMS traction stress of A431D^N-cad cells (no FGFR) on N-cad-Fc-coated 40 kPa gels [9]: 85 Pa
RMS traction stress of A431D^N-cad cells (no FGFR) on E-cad-Fc-coated 40 kPa gels [10]: 88 Pa
density of cells attached to the substrate [5]: 22 cells/mm²
density of cells attached to the substrate [6]: 15 cells/mm²
RMS traction stress of A431-D^N-cad+FGFR cells on N-cad-Fc-coated 40 kPa gels, 0.5% serum [11]: 176 Pa
RMS traction stress of A431-D^N-cad+FGFR cells on E-cad-Fc-coated 40 kPa gels, 0.5% serum [12]: 100 Pa
WSS50 (wall shear stress at which 50% of the cells are retained) [13]: 17 dynes/cm^2
WSS50 (wall shear stress at which 50% of the cells are retained) [14]: 15 dynes/cm^2
Substance: full-length wild-type human N-cadherin on A431-D cells (A431-D^N-cad; A431-D^N-cad+FGFR) (from UniProt P19022 26-906) (receptor)
